The target in one test is T1, human CD20 on cells (human, UniProt P11836 1-297).
T1 construct: whole, on cells; The CD20+ cells in these assays also carry CD47; also called CD20 on B cells and Raji cells
T1 sequence (looked up): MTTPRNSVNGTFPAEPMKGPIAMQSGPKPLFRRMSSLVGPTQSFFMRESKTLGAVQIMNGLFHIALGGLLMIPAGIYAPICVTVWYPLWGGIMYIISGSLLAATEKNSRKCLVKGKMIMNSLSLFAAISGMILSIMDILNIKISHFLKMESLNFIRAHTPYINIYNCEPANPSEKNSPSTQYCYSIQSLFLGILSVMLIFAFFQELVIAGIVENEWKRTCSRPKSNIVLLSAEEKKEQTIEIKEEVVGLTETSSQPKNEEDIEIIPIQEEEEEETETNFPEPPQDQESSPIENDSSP
Kind of test: binding to Raji cells (CD20+/CD47+), MFI on the sheet (the legend paragraph 49 says SPR); the signal is not resolved between the CD20 and CD47 arms.

For test [1], the target named is T2, human CD47 expressed on the cell surface (human, UniProt Q08722 19-323).
T2 construct: whole, on cells; also called cell surface CD47; CD47 on Raji, OCI-Ly3, Fadu cells, human RBCs, platelets and blood cells
The experiment in a line: blocking of human SIRPα binding to OCI-Ly3 cells; competitor SIRPα at a saturating concentration, secondary antibody detection; OCI-Ly3 cells (CD20+ DLBCL line); blocking of human SIRPα binding.

A further test concerns the target T3, mouse CD47 (mouse, UniProt Q61735 19-140, limits assumed).
T3 sequence (looked up): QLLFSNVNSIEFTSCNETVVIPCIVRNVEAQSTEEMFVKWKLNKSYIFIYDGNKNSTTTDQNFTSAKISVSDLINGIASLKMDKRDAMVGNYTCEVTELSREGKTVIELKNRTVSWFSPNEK
The experiment in a line: SPR.

Test [2] addresses T4, human CD47 ECD (human, UniProt Q08722 19-139).
T4 construct: extracellular domain; also called human CD47 extracellular domain
Kind of test: SPR.

A further test has as its target T5, cynomolgus CD47 ECD (cynomolgus, UniProt A0A2K5X523 19-139).
T5 construct: extracellular domain
The experiment in a line: SPR.

The target of test [3] is T2, human CD47 expressed on the cell surface. The experiment in a line: blocking of human SIRPα binding to Raji cells; competitor SIRPα at a saturating concentration, secondary antibody detection; Raji cells (CD47+/CD20+ Burkitt's lymphoma line); blocking of human SIRPα binding.
The target is the same in test [4]. Kind of test: cell-based or functional assay.
The target of test [5] is T4, human CD47 ECD. Kind of test: column 'Human CD47 KD (µM)'; the sheet names no assay (SPR per paragraph 7 and paragraph 162).
In test [6] the target is T2, human CD47 expressed on the cell surface. The experiment in a line: cell-based or functional assay. This is another data set of the same source.
Test [7] has the same target. Kind of test: blocking of human SIRPα binding to OCI-Ly3 cells; competitor SIRPα (FIG. 21).

B1: TPP-1360 (bispecific antibody, human IgG1, kappa)
light 1: NIQMTQSPSSLSASVGDRVTITCRASQDIHRYLSWFQQKPGKVPKHLIYRESRFVDGVPSRFSGSGSGTEFTLTISSLQPEDFATYYCLQYDEFPYTFGGGTKVEIKRTVAAPSVFIFPPSDEELKSGTASVVCWLNNFYPREAKVQWKVDNALQSGNSEESVTEQDSKDSTYSLSSTLELSKADYEKHKVYACEVTHQGLSSPVTKSFNRGEC
heavy 1: QMQLVQSGAEVKKPGSSVKVSCKASGFNIKDYYLHWVRQAPGKGLEWMGWIDPDQGDTYYAQKFQGRVTITRDRSTSTAYMELRSLRAEDTAVYYCNAAYGESSYPMDYWGQGTLVTVSSASTKGPSVFPLAPSSKSTSGGTAALGCLVKDYFPEPVTVSWNSGALTSGVHTFPAVLKSSGLYSLSSVVTVPSSSLGTQTYICNVNHKPSNTKVDKKVEPKSCDKTHTCPPCPAPELLGGPSVFLFPPKPKDTLMISRTPEVTCVVVDVSHEDPEVKFNWYVDGVEVHNAKTKPREEQYNSTYRVVSVLTVLHQDWLNGKEYKCKVSNKALPAPIEKTISKAKGQPREPQVYVLPPSREEMTKNQVSLLCLVKGFYPSDIAVEWESNGQPENNYLTWPPVLDSDGSFFLYSKLTVDKSRWQQGNVFSCSVMHEALHNHYTQKSLSLSPGK
light 2: QIVLSQSPAILSASPGEKVTMTCRASSSVSYIHWFQQKPGSSPKPWIYATSNLASGVPVRFSGSGSGTSYSLTISRVEAEDAATYYCQQWTSNPPTFGGGTKLEIKRTVAAPSVAIFPPSDERLKSGTASVVCVLNNFYPREAKVQWKVDNALQSGNSQESVTEQDSKDSTYSLSSRLTLSKADYEKHKVYACEVTHQGLSSPVTKSFNRGEC
heavy 2: QVQLQQPGAELVKPGASVKMSCKASGYTFTSYNMHWVKQTPGRGLEWIGAIYPGNGDTSYNQKFKGKATLTADKSSSTAYMQLSSLTSEDSAVYYCARSTYYGGDWYFNVWGAGTTVTVSAASTKGPSVFPLAPSSKSTSGGTAWLGCEVTDYFPEPVTVSWNSGALTSGVHTFPAVLESSGLYSLSSVVTVPSSSLGTQTYICNVNHKPSNTKVDKKVEPKSCDKTHTCPPCPAPELLGGPSVFLFPPKPKDTLMISRTPEVTCVVVDVSHEDPEVKFNWYVDGVEVHNAKTKPREEQYNSTYRVVSVLTVLHQDWLNGKEYKCKVSNKALPAPIEKTISKAKGQPREPQVYVYPPSREEMTKNQVSLTCLVKGFYPSDIAVEWESNGQPENNYKTTPPVLDSDGSFALVSKLTVDKSRWQQGNVFSCSVMHEALHNHYTQKSLSLSPGK
notes: IgG1 1+1 heterodimer: one detuned anti-CD47 arm and one rituximab-derived anti-CD20 arm; also called CD47×CD20 bispecific; CD47×CD20 IgG1
Turning to B1, the values for the binding result with human CD20 on cells and with mouse CD47 were “binds” and “no binding”, respectively. Moreover, the EC50 in test [1] is 1.3 nM; in test [3], 1.64 nM. The equilibrium dissociation constant (Kd) with human CD47 ECD [2] is 1700 nM; with cynomolgus CD47 ECD it was 4510 nM. The “fold decrease in affinity relative to the parental anti-CD47 binder” value with human CD47 ECD [2] was approximately 350 fold. In addition, the “IC50 of activation of macrophage phagocytosis, OCI-Ly3 cell line” value in [4] was 1.4 nM. Besides, in test [4], the “IC50 of activation of macrophage phagocytosis, Raji cell line” value amounted to 1.8 nM.

B2: TPP-1367 (bispecific antibody, human IgG1, kappa)
anti-CD47 light chain: NIQMTQSPSSLSASVGDRVTITCRASQDIHRYLSWFQQKPGKVPKHLIYRANRLVSGVPSRFSGSGSGTEFTLTISSLQPEDFATYYCLQYDEFPYTFGGGTKVEIKRTVAAPSVFIFPPSDEELKSGTASVVCWLNNFYPREAKVQWKVDNALQSGNSEESVTEQDSKDSTYSLSSTLELSKADYEKHKVYACEVTHQGLSSPVTKSFNRGEC
anti-CD47 heavy chain: QMQLVQSGAEVKKPGSSVKVSCKASGFNIKDYYLHWVRQAPGKGLEWMGWIDPDQGDTYYAQKFQGRVTITRDRSTSTAYMELRSLRAEDTAVYYCNAAYGESSYPMDYWGQGTLVTVSSASTKGPSVFPLAPSSKSTSGGTAALGCLVKDYFPEPVTVSWNSGALTSGVHTFPAVLKSSGLYSLSSVVTVPSSSLGTQTYICNVNHKPSNTKVDKKVEPKSCDKTHTCPPCPAPELLGGPSVFLFPPKPKDTLMISRTPEVTCVVVDVSHEDPEVKFNWYVDGVEVHNAKTKPREEQYNSTYRVVSVLTVLHQDWLNGKEYKCKVSNKALPAPIEKTISKAKGQPREPQVYVLPPSREEMTKNQVSLLCLVKGFYPSDIAVEWESNGQPENNYLTWPPVLDSDGSFFLYSKLTVDKSRWQQGNVFSCSVMHEALHNHYTQKSLSLSPGK
anti-CD20 light chain: QIVLSQSPAILSASPGEKVTMTCRASSSVSYIHWFQQKPGSSPKPWIYATSNLASGVPVRFSGSGSGTSYSLTISRVEAEDAATYYCQQWTSNPPTFGGGTKLEIKRTVAAPSVAIFPPSDERLKSGTASVVCVLNNFYPREAKVQWKVDNALQSGNSQESVTEQDSKDSTYSLSSRLTLSKADYEKHKVYACEVTHQGLSSPVTKSFNRGEC
anti-CD20 heavy chain: QVQLQQPGAELVKPGASVKMSCKASGYTFTSYNMHWVKQTPGRGLEWIGAIYPGNGDTSYNQKFKGKATLTADKSSSTAYMQLSSLTSEDSAVYYCARSTYYGGDWYFNVWGAGTTVTVSAASTKGPSVFPLAPSSKSTSGGTAWLGCEVTDYFPEPVTVSWNSGALTSGVHTFPAVLESSGLYSLSSVVTVPSSSLGTQTYICNVNHKPSNTKVDKKVEPKSCDKTHTCPPCPAPELLGGPSVFLFPPKPKDTLMISRTPEVTCVVVDVSHEDPEVKFNWYVDGVEVHNAKTKPREEQYNSTYRVVSVLTVLHQDWLNGKEYKCKVSNKALPAPIEKTISKAKGQPREPQVYVYPPSREEMTKNQVSLTCLVKGFYPSDIAVEWESNGQPENNYKTTPPVLDSDGSFALVSKLTVDKSRWQQGNVFSCSVMHEALHNHYTQKSLSLSPGK
notes: IgG1 1+1 heterodimer; also called CD47/CD20 TPP1367; CD47×CD20 bispecific
B2 gave a Kd in the test with human CD47 ECD [5] of 430 nM. In test [6], the “EC50 of macrophage phagocytosis of OCI-Ly3 cells (column 'OCI-Ly3 Mφ EC50 (µg/mL)')” value was 0.064 µg/mL and the “EC50 of macrophage phagocytosis of OCI-Ly3 cells, repeat (column 'OCI-Ly3 Mφ EC50 (µg/mL) Repeat')” value came to 0.046 µg/mL.

B3: TPP-1361 (bispecific antibody, human IgG1, kappa)
light 1: NIQMTQSPSSLSASVGDRVTITCQASQDIHRYLSWFQQDPGTVPQHLIYRESRFVDGVPSRFSGSGSGTEFTLTISSLQPEDFATYYCLQYDEFPYTFGGGTKVEIKRTVAAPSVFIFPPSDEELKSGTASVVCWLNNFYPREAKVQWKVDNALQSGNSEESVTEQDSKDSTYSLSSTLELSKADYEKHKVYACEVTHQGLSSPVTKSFNRGEC
heavy 1: QMQLVQSGAEVKKPGSSVKVSCKASGFNIKDYYLHWVRQAPGQGLEWMGWIDPDQGDTYYAQKFQGRVTITRDRSTSTAYMELASLTAEDTAVYYCNAAYGESSYPMDYWGQGTLVTVSSASTKGPSVFPLAPSSKSTSGGTAALGCLVKDYFPEPVTVSWNSGALTSGVHTFPAVLKSSGLYSLSSVVTVPSSSLGTQTYICNVNHKPSNTKVDKKVEPKSCDKTHTCPPCPAPELLGGPSVFLFPPKPKDTLMISRTPEVTCVVVDVSHEDPEVKFNWYVDGVEVHNAKTKPREEQYNSTYRVVSVLTVLHQDWLNGKEYKCKVSNKALPAPIEKTISKAKGQPREPQVYVLPPSREEMTKNQVSLLCLVKGFYPSDIAVEWESNGQPENNYLTWPPVLDSDGSFFLYSKLTVDKSRWQQGNVFSCSVMHEALHNHYTQKSLSLSPGK
light 2: QIVLSQSPAILSASPGEKVTMTCRASSSVSYIHWFQQKPGSSPKPWIYATSNLASGVPVRFSGSGSGTSYSLTISRVEAEDAATYYCQQWTSNPPTFGGGTKLEIKRTVAAPSVAIFPPSDERLKSGTASVVCVLNNFYPREAKVQWKVDNALQSGNSQESVTEQDSKDSTYSLSSRLTLSKADYEKHKVYACEVTHQGLSSPVTKSFNRGEC
heavy 2: QVQLQQPGAELVKPGASVKMSCKASGYTFTSYNMHWVKQTPGRGLEWIGAIYPGNGDTSYNQKFKGKATLTADKSSSTAYMQLSSLTSEDSAVYYCARSTYYGGDWYFNVWGAGTTVTVSAASTKGPSVFPLAPSSKSTSGGTAWLGCEVTDYFPEPVTVSWNSGALTSGVHTFPAVLESSGLYSLSSVVTVPSSSLGTQTYICNVNHKPSNTKVDKKVEPKSCDKTHTCPPCPAPELLGGPSVFLFPPKPKDTLMISRTPEVTCVVVDVSHEDPEVKFNWYVDGVEVHNAKTKPREEQYNSTYRVVSVLTVLHQDWLNGKEYKCKVSNKALPAPIEKTISKAKGQPREPQVYVYPPSREEMTKNQVSLTCLVKGFYPSDIAVEWESNGQPENNYKTTPPVLDSDGSFALVSKLTVDKSRWQQGNVFSCSVMHEALHNHYTQKSLSLSPGK
notes: IgG1 1+1 heterodimer; also called CD47×CD20 bispecific
Turning to B3, in the test with human CD47 ECD [5], the dissociation constant Kd was 2530 nM. Besides, in test [6], the “EC50 of macrophage phagocytosis of OCI-Ly3 cells (column 'OCI-Ly3 Mφ EC50 (µg/mL)')” value is 0.5 µg/mL and the “EC50 of macrophage phagocytosis of OCI-Ly3 cells, repeat (column 'OCI-Ly3 Mφ EC50 (µg/mL) Repeat')” value amounted to 0.45 µg/mL.

B4: TPP-23 (408_437 with IgG1) (antibody, V domains shown)
VH: QMQLVQSGAEVKKPGSSVKVSCKASGFNIKDYYLHWVRQAPGKGLEWMGWIDPDQGDTEYAQKFQGRVTITRDRSTSTAYMELRSLRAEDTAVYYCNAAYGSSSYPMDYWGQGTLVTVSS
VL: NIQMTQSPSSLSASVGDRVTITCRASQDIHRYLSWFQQKPGKVPKHLIYRANRLVSGVPSRFSGSGSGTEFTLTISSLQPEDFATYYCLQYDEFPYTFGGGTKVEIK
notes: Monospecific IgG1 with the 408_437 Fab; also called parental CD47 mAb
As for B4, the IC50 in test [7] is 0.11 nM.

The record behind these values is patent US20220162330A1 (CELGENE, published 2022).
